Laboratory results from patent US20240277823A1 (published 2024).

Tests used:
5G10 = assay: BLI; 500 nM antigen
6A5 = assay: BLI; 500 nM antigen

B1: LA0591 (other)
chain: VNPDQYCPASKKENHNIRIKRTLPPDFQLTEEWLRRLYDIATSASLTEGQIHGICGVCLLQTFQMLAELQEYHSHGPLQGGGYFFNTAPDTDPFDSFRQRYPELDTMLTDAATAYGPAYNTTRLLTLVSAMTMMPQYEWTPSREFTTRSDMHSHIRSLIDSPPGSIWLGLMQRRESDETLRWHALPILRTSQGLIVIQTRVSTMSFELYRLYLTPSTSIVQIINDYLEEADRTLTVLVTIQLEQAYQNLFDFMVSNMNCTGEGENRRGSGGYPTSATVNQCSGGRCALPNW
Q: Which Kd (5G10) does the source give for B1 here?
A: The Kd was under 1 pM.

Q: What about the Kd (6A5) of the same binder?
A: Its Kd is under 1 pM.
